For the assay, the target named is human CD4 on the membrane surface of DG44 #3 cells (human, UniProt P01730). The experiment in a line: FACS on DG44 #3 cells (CHO cells transfected with human CD4 cDNA).

B1: HIV-1 gp120LAI (ligand)
chain: not shown
For the molecule B1, the binding result is reported as “binds”.

The record behind these values is patent US5886163, “HIV-1 antigens, antibody compositions related thereto, and therapeutic and prophylactic uses thereof” (Progenics Pharmaceuticals, Inc., dated 1999).
